In article PMC6066304:

Biological target: Arabidopsis thaliana plant cysteine oxidase 5 (Arabidopsis thaliana) (UniProt Q9LXT4)
UniProt Q9LXT4, sequence (Q9LXT4 whole entry): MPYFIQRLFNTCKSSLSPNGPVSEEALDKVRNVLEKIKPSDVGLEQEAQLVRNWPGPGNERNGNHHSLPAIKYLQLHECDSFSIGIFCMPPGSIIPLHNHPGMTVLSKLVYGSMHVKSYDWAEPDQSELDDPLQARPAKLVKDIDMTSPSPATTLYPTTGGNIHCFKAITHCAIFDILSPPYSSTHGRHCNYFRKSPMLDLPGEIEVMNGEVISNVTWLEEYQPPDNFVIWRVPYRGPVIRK

- Km for AtRAP2(2–15); initial rates of N-terminal cysteine oxidation by LC-MS, Michaelis–Menten fit with substrate inhibition, atmospheric O2, pH 8.0, 25 °C: 0.16 mM
Substance: AtRAP2(2–15), 14-amino acid peptide corresponding to the methionine excised N terminus of AtRAP2.2 and AtRAP2.12
